Reference: article PMC10441969, “Small protein Cgl2215 enhances phenolic tolerance by promoting MytA activity in Corynebacterium glutamicum” (Stress Biology, 2022)

Biological target: T1, His6-MytA (C. glutamicum, UniProt P0C1D6 44-657)
T1 sequence (looked up): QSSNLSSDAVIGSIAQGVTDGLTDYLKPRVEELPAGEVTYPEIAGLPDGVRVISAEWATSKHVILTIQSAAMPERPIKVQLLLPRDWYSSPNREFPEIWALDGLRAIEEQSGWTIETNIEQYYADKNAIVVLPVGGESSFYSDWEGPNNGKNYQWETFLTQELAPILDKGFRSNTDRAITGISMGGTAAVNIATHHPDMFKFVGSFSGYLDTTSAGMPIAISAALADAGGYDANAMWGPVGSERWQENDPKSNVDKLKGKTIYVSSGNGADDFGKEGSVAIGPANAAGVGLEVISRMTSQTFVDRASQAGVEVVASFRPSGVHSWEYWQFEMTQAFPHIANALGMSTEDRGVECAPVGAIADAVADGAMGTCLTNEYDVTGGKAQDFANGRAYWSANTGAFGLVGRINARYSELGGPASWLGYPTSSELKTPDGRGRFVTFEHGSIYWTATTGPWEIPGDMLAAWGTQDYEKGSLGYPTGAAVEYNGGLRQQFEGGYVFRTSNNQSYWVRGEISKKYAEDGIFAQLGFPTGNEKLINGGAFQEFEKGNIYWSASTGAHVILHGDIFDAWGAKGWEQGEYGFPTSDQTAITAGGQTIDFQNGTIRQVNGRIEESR
Experiment: cell-based or functional assay

B1: GST-Cgl2215 (natural protein, C. glutamicum, UniProt Q8NNI6 1-71, looked up)
chain: MNHKLFGSKQFRKEKEMGLRIRPNEMKVWETFTLERQLEVIINADHLLLFRGEPHGTVSLSDVVASELIGI
- in vitro esterase activity of MytA (release of p-NP from p-NPP; MytA 4.7 μM) with GST-Cgl2215 at a 1:1 ratio of GST-Cgl2215:MytA and higher ratios (further increased): 1.6 fold
